Data reported in article PMC3326531.

Experiments:
[1] = target: SENP1 (415–644) (human) (UniProt Q9P0U3)
[2] = target: SENP1 C603A (415–644) (human) (UniProt Q9P0U3); test: ITC
SENP1 C603A (415–644) (human), sequence (Q9P0U3 415-644 C603A): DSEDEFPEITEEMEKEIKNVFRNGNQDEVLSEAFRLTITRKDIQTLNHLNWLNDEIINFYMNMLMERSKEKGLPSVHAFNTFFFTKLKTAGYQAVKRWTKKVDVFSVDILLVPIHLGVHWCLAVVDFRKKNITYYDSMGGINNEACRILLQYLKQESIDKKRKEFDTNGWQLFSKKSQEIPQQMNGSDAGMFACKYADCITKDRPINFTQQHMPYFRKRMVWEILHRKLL

SENP1 (415–644) (human), sequence (Q9P0U3 415-644): as the sequence (Q9P0U3 415-644 C603A) above, with A189C counted along it

Substance | apparent Km, Km(app), of cleavage by SENP1 (FRET-based protease assay) [1] | IC50 of product inhibition of SENP1 cleavage of YFP–RanGAP1–SUMO-2–ECFP (500 nM) [1] | IC50 of product inhibition of SENP1 cleavage of YFP–SUMO-2-FL–ECFP (500 nM) [1] | Kd [2] | dH [2]
YFP–RanGAP1–SUMO-2–ECFP (from UniProt P46060 418-587; P55854 1-93) (complex) | 0.242 µM |  |  |  | 
mature SUMO-2 (SUMO-2-GG) (from UniProt P55854 1-93) (natural protein) |  | 1600 nM | 2230 nM | 8.56 nM | -14.5 kcal/mol
